{
  "source": "patent US20090285830A1",
  "about": "(published 2009)",
  "data": [
    {"molecular_target": "T1, recombinant human lymphotoxin-α (LTα), homotrimer LTα3 (human, UniProt P01374 35-205)", "T1 construct": "One molecule is used for 'LTα' (plate ELISA), 'rhLTα' (BIACORE, phage ELISA) and 'human LTα3'; also called human LTα3; rhLTα", "T1 sequence (looked up)": "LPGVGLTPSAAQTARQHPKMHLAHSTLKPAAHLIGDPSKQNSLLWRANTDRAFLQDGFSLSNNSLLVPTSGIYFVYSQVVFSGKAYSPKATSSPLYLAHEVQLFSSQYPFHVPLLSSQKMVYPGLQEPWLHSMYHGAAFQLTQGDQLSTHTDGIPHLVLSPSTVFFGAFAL", "test": "plate-based ELISA on human LTα, ratio to the chimera", "values": [
      {"binder": "chimeric anti-LTα antibody 2C8 (murine/human chimera) (antibody, human IgG1, kappa, V domains shown, also called 2C8 chimera; 2C8.chimera) VH: EVQLQQSGPELVKPGASVKLSCKASGYTFTSYVIHWVKQKPGQGLEWIGYNNPYNDGTNYNEKFKGKATLTSDKSSSTAYMELSSLTSEDSAVYYCSRPTMLPWFAYWGQGTTLTVSA VL: DIVMTQSHKFMSTSVGDRVSITCKASQAVSSAVAWYQQKPGQSPKLQIYSASHRYTGVPDRFTGSGSGTDFTFTISSVQAEDLAVYYCQQHYSTPWTFGGGTKVEIKR", "ELISA IC50 ratio": 1},
      {"binder": "humanized 2C8.v2 (antibody, IgG1, V domains shown, also called Version 2; wild-type 2C8.v2) VH: EVQLVESGGGLVQPGGSLRLSCAASGYTFTSYVIHWVRQAPGKGLEWVGYNNPYNDGTNYNEKFKGRATISSDKSKNTAYLQMNSLRAEDTAVYYCSRPTMLPWFAYWGQGTLVTVSS VL: DIQMTQSPSSLSASVGDRVTITCRASQAVSSAVAWYQQKPGKAPKLQIYSASHRYTGVPSRFSGSGSGTDFTLTISSLQPEDFATYYCQQHYSTPWTFGQGTKVEIKR", "ELISA IC50 ratio": 1.7},
      {"binder": "humanized 2C8.v16 (antibody, V domains shown, HC v12 = HC v2 + A67F) VH: EVQLVESGGGLVQPGGSLRLSCAASGYTFTSYVIHWVRQAPGKGLEWVGYNNPYNDGTNYNEKFKGRFTISSDKSKNTAYLQMNSLRAEDTAVYYCSRPTMLPWFAYWGQGTLVTVSS VL: DIQMTQSPSSLSASVGDRVTITCRASQAVSSAVAWYQQKPGKAPKLLIYSASHRYTGVPSRFSGSGSGTDFTLTISSLQPEDFATYYCQESYSTPWTFGQGTKVEIKR", "ELISA IC50 ratio": 0.6},
      {"binder": "humanized 2C8.v7 (antibody, V domains shown) VH: EVQLVESGGGLVQPGGSLRLSCAASGYTFTSYVIHWVRQAPGKGLEWVGYNNPYNDGTNYNEKFKGRATISSDKSKNTAYLQMNSLRAEDTAVYYCSRPTMLPWFAYWGQGTLVTVSS VL: DIQMTQSPSSLSASVGDRVTITCRASQAVSSAVAWYQQKPGKAPKLLIYSASHRYTGVPSRFSGSGSGTDFTLTISSLQPEDFATYYCQQHYSTPWTFGQGTKVEIKR", "ELISA IC50 ratio": 1.2},
      {"binder": "humanized 2C8.v12 (antibody, V domains shown, HC v12 = HC v2 + A67F); also called Version 12) VH: EVQLVESGGGLVQPGGSLRLSCAASGYTFTSYVIHWVRQAPGKGLEWVGYNNPYNDGTNYNEKFKGRFTISSDKSKNTAYLQMNSLRAEDTAVYYCSRPTMLPWFAYWGQGTLVTVSS VL: DIQMTQSPSSLSASVGDRVTITCRASQAVSSAVAWYQQKPGKAPKLLIYSASHRYTGVPSRFSGSGSGTDFTLTISSLQPEDFATYYCQQHYSTPWTFGQGTKVEIKR", "ELISA IC50 ratio": 1}
    ]},
    {"molecular_target": "T1, recombinant human lymphotoxin-α (LTα), …", "test": "plate ELISA on coated LTα", "units": {"Relative binding (to the original chimera)": "x down"}, "values": [
      {"binder": "humanized 3F12 v4 (antibody, V domains shown) VH: EVQLVESGGGLVQPGGSLRLSCAASGYTFSSYWIEWVRQAPGKGLEWVGEISPGSGSTNYNEEFKGRATISADNSKNTAYLQMNSLRAEDTAVYYCADGYHGYWGQGTLVTVSS VL: DIQMTQSPSSLSASVGDRVTITCKSSQSLLYSTNQKNFLAWYQQKPGKAPKLLIYWASTRDSGVPSRFSGSGSGTDFTLTISSLQPEDFATYYCQQYYSYPRTFGQGTKVEIKR", "Relative binding (to the original chimera)": "> 500"},
      {"binder": "humanized 3F12 v3 (antibody, V domains shown) VH: EVQLVESGGGLVQPGGSLRLSCAASGYTFSSYWIEWVRQAPGKGLEWVGEISPGSGSTNYNEEFKGRATISADKSKNTLYLQMNSLRAEDTAVYYCADGYHGYWGQGTLVTVSS VL: DIQMTQSPSSLSASVGDRVTITCKSSQSLLYSTNQKNFLAWYQQKPGKAPKLLIYWASTRDSGVPSRFSGSGSGTDFTLTISSLQPEDFATYYCQQYYSYPRTFGQGTKVEIKR", "Relative binding (to the original chimera)": "> 1000"},
      {"binder": "humanized 3F12 v2 (antibody, V domains shown) VH: EVQLVESGGGLVQPGGSLRLSCAASGYTFSSYWIEWVRQAPGKGLEWVGEISPGSGSTNYNEEFKGRATFSADNSKNTLYLQMNSLRAEDTAVYYCADGYHGYWGQGTLVTVSS VL: DIQMTQSPSSLSASVGDRVTITCKSSQSLLYSTNQKNFLAWYQQKPGKAPKLLIYWASTRDSGVPSRFSGSGSGTDFTLTISSLQPEDFATYYCQQYYSYPRTFGQGTKVEIKR", "Relative binding (to the original chimera)": "> 1000"}
    ]},
    {"molecular_target": "T2, recombinant human lymphotoxin-α (LTα), homotrimer LTα3 (human) (UniProt P01374)", "T2 sequence (looked up)": "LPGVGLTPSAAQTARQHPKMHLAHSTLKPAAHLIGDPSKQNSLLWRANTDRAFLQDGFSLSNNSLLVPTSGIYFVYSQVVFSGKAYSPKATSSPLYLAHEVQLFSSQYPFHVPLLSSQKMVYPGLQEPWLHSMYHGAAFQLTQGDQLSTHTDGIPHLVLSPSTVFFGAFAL", "test": "plate-based ELISA against LTα", "values": [
      {"binder": "humanized 3F12 version 8 (v5 with CDR-H3 G95A) (antibody, V domains shown) VH: EVQLVESGGGLVQPGGSLRLSCAASGYTFSSYWIEWVRQAPGKGLEWVGEISPGSGSTNYNEEFKGRATFSADNSKNTAYLQMNSLRAEDTAVYYCADAYHGYWGQGTLVTVSS VL: DIQMTQSPSSLSASVGDRVTITCKSSQSLLYSTNQKNFLAWYQQKPGKAPKLLIYWASTRDSGVPSRFSGSGSGTDFTLTISSLQPEDFATYYCQQYYSYPRTFGQGTKVEIK", "relative binding (EC50 of the variant / EC50 of version 5)": "> 100"},
      {"binder": "humanized 3F12 version 10 (v5 with CDR-H3 H100A) (antibody, V domains shown) VH: EVQLVESGGGLVQPGGSLRLSCAASGYTFSSYWIEWVRQAPGKGLEWVGEISPGSGSTNYNEEFKGRATFSADNSKNTAYLQMNSLRAEDTAVYYCADGYAGYWGQGTLVTVSS VL: DIQMTQSPSSLSASVGDRVTITCKSSQSLLYSTNQKNFLAWYQQKPGKAPKLLIYWASTRDSGVPSRFSGSGSGTDFTLTISSLQPEDFATYYCQQYYSYPRTFGQGTKVEIK", "relative binding (EC50 of the variant / EC50 of version 5)": "> 100"}
    ]}
  ]
}
